Source: article PMC9280406, “The Necrotroph Botrytis cinerea BcSpd1 Plays a Key Role in Modulating Both Fungal Pathogenic Factors and Plant Disease Development”

Molecular target: BcSpd1 (Botrytis cinerea, UniProt A0A384JL35 1-465)
Experiment: EMSA; excess unlabeled probe blocked the shift; LightShift Chemiluminescent EMSA kit procedure (Thermo Scientific); buffer, salt, pH and temperature not given
Details: protein: recombinant; tags: His (pET28a); chain copies: 2; blunt

B1: BcQdo promoter fragment 3 (E-BcQdo-Pr3) (dsDNA)
DNA 1: TACCGAACGCCCACAAGCCTTGAATATAGATGTACCGGTACTGCTGCCGA
DNA 2: TCGGCAGCAGTACCGGTACATCTATATTCAAGGCTTGTGGGCGTTCGGTA
  binding result: binds
